Results published in US20180128830A1, “DETECTION OF HUMAN CYTOMEGALOVIRUS IN BREAST CANCER” (priority 2015, published 2018).

Assays:
MDA-MB-231 cells [1] = assay: Apoptosis, Annexin V-FITC flow cytometry; type: cell-based, human; details: 100 ng/ml cmvIL-10 plus 100 μM etoposide, 48 hrs
Description: (§1) Cells were seeded into 96-well dishes at a density of 1×10^4 cell per well in complete medium with varying doses of cmvIL-10, and then cell viability measured at the indicated time points using the Cell Titer Glo Assay kit according to manufacturer's instructions (Promega). DNA synthesis was measured in cells prepared in the same way using the BrdU Cell Proliferation ELISA Kit (Roche, Basel, Switzerland). For experiments using inhibitors, cells were cultivated in 96-well dishes as above with a final concentration of 10 μM inhibitor and BrdU incorporation evaluated after 72 hrs. For cell counts, cells were seeded into 6-well plates at a density of 2×10^5 cells per well, harvested via trypsinization, and counted using a hemacytometer at the indicated time points. The TACS Annexin V-FITC Detection Kit (Trevigen, Gaithersburg, Md.) was used to stain cells harvested from 70% confluent T75 flasks that had been treated with 100 μM etoposide for 48 hrs in the presence or absence of 100 ng/ml cmvIL-10. Cells were then analyzed via flow cytometry to detect fluorescence. For viability assays, Cell Titer Glo reagent was utilized to quantify cells that had been seeded into 96-well dishes at a density of 1×10^4 cell per well in complete medium with varying doses of etoposide in the presence or absence of 100 ng/ml cmvIL-10 as indicated

HEK293 cells = assay: Transwell migration toward CXCL12; type: cell-based, human; details: 0.1 μg/ml cmvIL-10 in lower chamber, 4 hours
Description: Transwell migration assays were performed by suspending cells at a density of 5×10^4 cells/ml in migration media (MEM or RPMI […] media plus 0.5% FBS). A total of 75 μl of cells was placed onto the upper chamber of a 96-well transwell system with 5.0 μm pores (Corning-Costar, Corning, N.Y.). The lower chamber contained 235 μl of migration media with CXCL12 plus or minus cmvIL-10 as indicated. Plates were incubated for four hours at 37° C., and then cells that traversed through the filter into the lower chamber were quantified via the addition of CellTitre-Glo reagent (Promega, Madison, Wis.) according to manufacturer's instructions.

MDA-MB-231 cells [2] = assay: DNA synthesis, BrdU Cell Proliferation ELISA; type: cell-based, human; details: 100 ng/ml, vs control
Description: as §1

Stat1 = assay: Western blot for Stat1 phosphorylation in MDA-MB-231 cells; type: cell-based, human; details: 100 ng/ml, 15 min
Description: For western blotting, cells were treated with 100 ng/ml cmvIL-10, hIL-10, IFNγ or PBS for 15 min, then harvested into cell lysis buffer (150 mM NaCl, 20 mM HEPES, 0.5% Triton-X-100, 1 mM NaOV4, 1 mM EDTA, 0.1% NaN3). Lysates were clarified, proteins were separated via SDS-PAGE, and then transferred to a nitrocellulose membrane. Then membrane was incubated in blocking solution (5% milk+1×TBS-T) for 1 hr, then probed with primary antibody at a 1:1000 dilution (total Stat3 or pStat3, total Stat1 or pStat1) in blocking solution overnight at 4° C. After washing, the membranes were incubated with a 1:2000 dilution of appropriate AP-conjugated secondary antibody and bands were detected using Western Blue stabilized AP substrate (Promega, Madison, Wis.). For analysis of secreted proteins, supernatants were collected at various time points, analyzed by SDS-PAGE and then immunoblotted as above for cmvIL-10, hIL-10, or serpin E1/PAI.

IL-10R = target: T1, IL-10R (Homo sapiens, UniProt Q13651); assay: IL-10R immunofluorescence microscopy; type: cell-based; details: MDA-MB-231 cells, 100 ng/ml, 15 min
T1 construct: uninfected tumor cells express the IL-10R complex; endogenous in cells; host or cells: MDA-MB-231 human breast cancer cells
T1 sequence (Q13651 22-578): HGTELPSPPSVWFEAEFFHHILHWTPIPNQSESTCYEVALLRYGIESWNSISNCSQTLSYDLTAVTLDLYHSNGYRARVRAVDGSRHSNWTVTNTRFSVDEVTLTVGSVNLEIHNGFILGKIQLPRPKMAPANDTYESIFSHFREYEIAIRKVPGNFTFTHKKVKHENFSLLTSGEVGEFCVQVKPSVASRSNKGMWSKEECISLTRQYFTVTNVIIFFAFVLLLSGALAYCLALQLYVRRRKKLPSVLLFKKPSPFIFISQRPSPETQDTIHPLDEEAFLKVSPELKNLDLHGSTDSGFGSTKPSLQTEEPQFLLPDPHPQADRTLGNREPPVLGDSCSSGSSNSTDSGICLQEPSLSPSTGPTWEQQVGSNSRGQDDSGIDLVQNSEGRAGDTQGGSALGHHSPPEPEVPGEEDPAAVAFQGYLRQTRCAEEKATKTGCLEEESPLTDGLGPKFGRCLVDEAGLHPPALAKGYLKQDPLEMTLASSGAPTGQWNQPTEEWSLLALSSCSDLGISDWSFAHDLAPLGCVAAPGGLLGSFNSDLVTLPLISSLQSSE
T1 sequence (Q08334 20-325 partner): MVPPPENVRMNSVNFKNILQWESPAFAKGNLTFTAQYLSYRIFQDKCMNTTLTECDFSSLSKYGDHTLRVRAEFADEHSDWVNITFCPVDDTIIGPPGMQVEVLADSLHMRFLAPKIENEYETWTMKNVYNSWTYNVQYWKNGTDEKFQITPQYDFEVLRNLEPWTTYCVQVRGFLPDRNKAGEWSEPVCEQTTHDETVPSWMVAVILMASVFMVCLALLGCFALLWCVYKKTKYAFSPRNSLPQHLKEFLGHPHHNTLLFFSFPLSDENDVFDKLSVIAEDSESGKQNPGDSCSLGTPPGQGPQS
Description: MDA-MB-231 cells were seeded into 6-well dishes containing FBS-coated glass coverslips at a density of 2×10^5 cells per well and then incubated for 48 hrs at 37° C. Cell monolayers were washed with PBS, fixed with 4% paraformaldehyde, then permeabilized with 0.2% (w/v) Triton X-100 followed by treatment with ice cold 50% methanol-50% acetone for 30 min. Cells were then blocked with PBS+10% FBS for 1 hr at 37° C. and stained with anti-IL-10Rα antibody (Santa Cruz Biotechnology) at a 1:100 dilution for 1 hr at 37° C. Following three PBS washes, the coverslips were incubated with TRITC-conjugated secondary antibody for 1 hr, washed again, and then mounted on a glass slide using Prolong Gold anti-fade reagent with DAPI (Life Technologies, Grand Island, N.Y.). HFF cells were also grown on coverslips as described, mock- or virus-infected, and stained with anti-IE1 (EMD Millipore) followed by FITC-conjugated secondary antibody. Images were acquired using a Zeiss LSM700 laser scanning confocal microscope using Zen Black software (Carl Zeiss, Inc., Oberkochen, Germany).

B1: cmvIL-10 (protein)
chain: ATTTTIKNTKPQCRPEDYATRLQDLRVTFHRVKPTLQREDDYSVWLDGTVVKGCWGCSVMDWLLRRYLEIVFPAGDHVYPGLKTELHSMRSTLESIYKDMRQCPLLGCGDKSVISRLSQEAERKSDNGTRKGLSELDTLFSRLEEYLHSRK
For B1, the “cells stained positive for Annexin V” value (MDA-MB-231 cells [1]) was 14.8%, the “migration toward CXCL12” value (HEK293 cells) was “significantly increased” and the “rate of DNA synthesis (BrdU incorporation)” value (MDA-MB-231 cells [2]) was “significantly higher”. For the same molecule, the Stat1 phosphorylation (Stat1) was “did not globally activate other cellular effectors, such as Stat1” and the “IL-10R distribution after treatment” value (IL-10R) was “distinct redistribution of IL-10R”.
